Target: LCMV clone 13 nucleocapsid protein (NP), purified recombinant (Lymphocytic choriomeningitis virus, …, UniProt P09992, strain)
Assay: ELISA

B1: most expanded antibody variant of the NP-specific, second most expanded IgG clone (antibody, V domains shown)
VH: EVQLQQSGPELVKPGASVKMSCKASGYTFTDYNMHWVKQSHGKSLEWIGYINPNNGGTSYNQKFKGKATLTVNKSSSTAYMELRSLTSEDSAVYYCAREGGYWYFDVWGTGTTVTVSS
VL: DIVMTQSHKFMSTSVGDRVSITCKASQDVSTAVAWYQQKPGQSPKLLIYWASTRHTGVPDRFTGSGSGTDYTLTISSVQAEDLALYYCQQHYSTPFTFGSGTKLEIK
binding result: binds

Reference: publication doi:10.1101/2021.01.29.428852 (bioRxiv, 2021)
